Here are results for one molecule from patent US20240269235A1 (Gilead, published 2024).

In experiment [1] the target is T1, IL-2Rαβγ on KHYG-1 cells (human NK leukemia cell line that expresses IL-2Rα, β, and γ) (human, UniProt P01589 22-272; P14784 27-551; P31785 23-369).
T1 sequence (looked up) 1: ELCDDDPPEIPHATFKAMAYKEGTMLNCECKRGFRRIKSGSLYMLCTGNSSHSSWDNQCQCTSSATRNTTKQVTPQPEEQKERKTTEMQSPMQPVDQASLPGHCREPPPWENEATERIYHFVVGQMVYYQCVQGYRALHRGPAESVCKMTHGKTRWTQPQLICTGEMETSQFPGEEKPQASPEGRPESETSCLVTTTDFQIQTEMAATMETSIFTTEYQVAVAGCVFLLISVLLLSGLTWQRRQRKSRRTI
T1 sequence (looked up) 2: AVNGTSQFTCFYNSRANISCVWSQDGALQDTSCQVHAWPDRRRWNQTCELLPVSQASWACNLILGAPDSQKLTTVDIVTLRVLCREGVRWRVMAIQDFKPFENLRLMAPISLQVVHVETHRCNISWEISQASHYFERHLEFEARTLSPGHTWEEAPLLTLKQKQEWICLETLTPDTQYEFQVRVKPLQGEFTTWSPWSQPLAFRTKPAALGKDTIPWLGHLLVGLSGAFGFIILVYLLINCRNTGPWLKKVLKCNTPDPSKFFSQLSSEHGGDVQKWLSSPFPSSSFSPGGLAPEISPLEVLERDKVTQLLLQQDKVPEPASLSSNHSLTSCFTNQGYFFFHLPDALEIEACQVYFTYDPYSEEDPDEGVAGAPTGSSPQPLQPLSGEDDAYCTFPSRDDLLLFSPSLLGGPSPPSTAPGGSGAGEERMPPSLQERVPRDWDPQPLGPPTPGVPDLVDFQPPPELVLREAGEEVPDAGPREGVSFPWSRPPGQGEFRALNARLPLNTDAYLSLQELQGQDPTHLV
T1 sequence (looked up) 3: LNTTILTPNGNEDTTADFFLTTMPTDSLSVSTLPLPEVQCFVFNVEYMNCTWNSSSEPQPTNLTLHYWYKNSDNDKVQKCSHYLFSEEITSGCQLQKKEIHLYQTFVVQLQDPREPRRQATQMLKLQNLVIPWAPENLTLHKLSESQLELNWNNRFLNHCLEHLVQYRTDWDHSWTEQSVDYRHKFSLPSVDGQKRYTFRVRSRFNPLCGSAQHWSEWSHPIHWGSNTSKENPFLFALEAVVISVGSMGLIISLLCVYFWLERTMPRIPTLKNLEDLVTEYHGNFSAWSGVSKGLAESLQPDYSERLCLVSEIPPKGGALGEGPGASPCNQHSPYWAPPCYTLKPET
Nature of the experiment: cell-based or functional assay.

In experiment [2] the target is T2, IL-2Rα (recombinant IL-2 receptor α, R&D Systems Cat #: 223-2A/CF), biotinylated (human, UniProt P01589 22-213, limits assumed, biotinylated using sulfo-NHS-LC-LC-Biotin).
T2 construct: Bought reagent; also used here as the IL-2Rα partner of the in-silico analysis of PDB 2B5I (another construct); also called IL-2RA; CD25
T2 sequence (looked up): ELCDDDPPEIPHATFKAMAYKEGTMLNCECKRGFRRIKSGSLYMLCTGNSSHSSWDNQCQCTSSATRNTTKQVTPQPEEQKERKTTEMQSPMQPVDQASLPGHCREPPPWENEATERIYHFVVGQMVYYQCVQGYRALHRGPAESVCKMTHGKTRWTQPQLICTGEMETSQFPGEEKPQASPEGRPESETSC
As to the kind of experiment: SPR (Biacore), C1 or CM5 chip, biotinylated receptor on neutravidin. For orientation: Surface plasmon resonance follows binding to a sensor surface in real time, without labels.

Experiment [3] addresses T3, IL-2Rβγ heterodimer, custom biotinylated Fc fusion protein (human IL-2Rβ 27-240-Fc-FLAG / human IL-2Rγ … (human, site-specific biotinylation at the AviTag)).
T3 construct: Extracellular regions fused to IgG1 knob-in-hole Fc subunits with tags; also called IL-2 receptor βγ heterodimer; Fc-IL-2Rβγ
The description is as above.

The target of experiment [4] is T4, IL-2Rβ (recombinant IL-2 receptor β, R&D Systems Cat #:224-2B-025/CF), biotinylated (UniProt P14784 27-239, limits assumed, biotinylated using sulfo-NHS-LC-LC-Biotin).
T4 construct: Bought reagent; also called IL-2RB; CD122
T4 sequence (looked up): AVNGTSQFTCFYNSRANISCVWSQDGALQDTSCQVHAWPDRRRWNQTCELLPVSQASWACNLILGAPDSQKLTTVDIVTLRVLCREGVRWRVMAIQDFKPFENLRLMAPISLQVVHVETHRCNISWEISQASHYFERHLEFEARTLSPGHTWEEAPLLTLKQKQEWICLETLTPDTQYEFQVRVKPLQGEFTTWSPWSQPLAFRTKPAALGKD
Described as above.

T3 sequence (chain, as listed by the source limits assumed): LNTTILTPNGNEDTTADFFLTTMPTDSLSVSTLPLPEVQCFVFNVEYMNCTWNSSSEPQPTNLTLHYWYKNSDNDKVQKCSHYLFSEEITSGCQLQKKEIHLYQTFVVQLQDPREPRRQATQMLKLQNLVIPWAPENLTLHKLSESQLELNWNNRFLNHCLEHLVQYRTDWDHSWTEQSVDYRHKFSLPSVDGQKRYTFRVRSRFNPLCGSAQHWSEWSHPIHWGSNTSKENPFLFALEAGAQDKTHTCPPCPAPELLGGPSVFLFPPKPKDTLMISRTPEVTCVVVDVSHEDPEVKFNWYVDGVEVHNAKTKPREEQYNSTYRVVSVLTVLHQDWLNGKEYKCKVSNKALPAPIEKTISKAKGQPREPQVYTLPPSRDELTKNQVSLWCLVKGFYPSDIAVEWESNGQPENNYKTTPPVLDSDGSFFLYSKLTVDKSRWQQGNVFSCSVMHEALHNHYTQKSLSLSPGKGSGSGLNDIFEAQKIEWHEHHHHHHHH

B1: Fc-IL-2 heterodimer 117.46 (hIL-2v_Δ1-5_C125S), native IL-2Rα binding interface (Fc fusion)
chain 1: ESKYGPPCPPCPAPEAAGGPSVFLFPPKPKDTLMISRTPEVTCVVVDVSQEDPEVQFNWYVDGVEVHNAKTKPREEQFNSTYRVVSVLTVLHQDWLNGKEYKCKVSNKGLPSSIEKTISKAKGQPREPQVYTLPPSQEEMTKNQVSLWCLVKGFYPSDIAVEWESNGQPENNYKTTPPVLDSDGSFFLYSRLTVDKSRWQEGNVFSCSVMHEALHNHYTQKSLSLSLGGGGGSGGGGSGGGGSGGGGSSTKKTQLQLEHLLLDLQMILNGINNYKNPKLTRMLTFKFYMPKKATELKHLQCLEEELKPLEEVLNLAQSKNFHLRPRDLISNINVIVLELKGSETTFMCEYADETATIVEFLNRWITFSQSIISTLT
chain 2: ESKYGPPCPPCPAPEAAGGPSVFLFPPKPKDTLMISRTPEVTCVVVDVSQEDPEVQFNWYVDGVEVHNAKTKPREEQFNSTYRVVSVLTVLHQDWLNGKEYKCKVSNKGLPSSIEKTISKAKGQPREPQVYTLPPSQEEMTKNQVSLSCAVKGFYPSDIAVEWESNGQPENNYKTTPPVLDSDGSFFLVSRLTVDKSRWQEGNVFSCSVMHEALHNRFTQKSLSLSLGK
notes: hIgG4 knob-in-hole Fc heterodimer
As to B1, in experiment [1], the “Proliferation of KHYG-1 NK cells, EC50” value amounted to 0.016 nM. The Kd (in general, the equilibrium constant for the complex coming apart) in experiment [2] is 15 nM; in experiment [3] it was 0.142 nM; in experiment [4] it was 7000 nM.
